Laboratory results reported in patent US20070231324A1.

Biological target: CD20 (human) (UniProt P11836)
Assay: FACS staining of Ramos, Daudi, Raji and BJAB B lymphoma cells

Sequence of UniProt P11836 (P11836 whole entry): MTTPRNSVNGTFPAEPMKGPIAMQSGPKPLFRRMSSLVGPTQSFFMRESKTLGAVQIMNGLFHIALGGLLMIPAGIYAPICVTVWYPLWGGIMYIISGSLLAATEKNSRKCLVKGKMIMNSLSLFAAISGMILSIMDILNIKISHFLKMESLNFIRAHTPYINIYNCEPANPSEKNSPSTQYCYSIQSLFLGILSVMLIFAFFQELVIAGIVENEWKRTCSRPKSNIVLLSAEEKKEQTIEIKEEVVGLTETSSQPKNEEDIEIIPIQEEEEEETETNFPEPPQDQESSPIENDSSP

mean fluorescence shift: 5 to 15 units
Substance: RITUXAN® (rituximab), monoclonal antibody specific for CD20
